Here are results for four variants from IntAct's records for PubMed 23108047.

Sequences and labels used below:
B1: Coiled-coil domain-containing protein 6 (Homo sapiens), Q16204 (parent)
chain: MADSASESDTDGAGGNSSSSAAMQSSCSSTSGGGGGGGGGGGGGKSGGIVISPFRLEELTNRLASLQQENKVLKIELETYKLKCKALQEENRDLRKASVTIQARAEQEEEFISNTLFKKIQALQKEKETLAVNYEKEEEFLTNELSRKLMQLQHEKAELEQHLEQEQEFQVNKLMKKIKKLENDTISKQLTLEQLRREKIDLENTLEQEQEALVNRLWKRMDKLEAEKRILQEKLDQPVSAPPSPRDISMEIDSPENMMRHIRFLKNEVERLKKQLRAAQLQHSEKMAQYLEEERHMREENLRLQRKLQREMERREALCRQLSESESSLEMDDERYFNEMSAQGLRPRTVSSPIPYTPSPSSSRPISPGLSYASHTVGFTPPTSLTRAGMSYYNSPGLHVQHMGTSHGITRPSPRRSNSPDKFKRPTPPPSPNTQTPVQPPPPPPPPPMQPTVPSAATSQPTPSQHSAHPSSQP

Common to all, as to conditions: with fbxw7_human FBXW7, Q969H0
The variants in test [1] derive from B1.
Test [2] covers variants of B1. The source holds these as a separate data set.
Variants of B1 are the subject of test [3]. The source holds these as a separate data set.
In test [4] the parent is B1. The source holds these as a separate data set.
In test [5] the parent is B1. This is another data set of the same source.

Sequence of fbxw7_human FBXW7, Q969H0 (Q969H0 whole entry): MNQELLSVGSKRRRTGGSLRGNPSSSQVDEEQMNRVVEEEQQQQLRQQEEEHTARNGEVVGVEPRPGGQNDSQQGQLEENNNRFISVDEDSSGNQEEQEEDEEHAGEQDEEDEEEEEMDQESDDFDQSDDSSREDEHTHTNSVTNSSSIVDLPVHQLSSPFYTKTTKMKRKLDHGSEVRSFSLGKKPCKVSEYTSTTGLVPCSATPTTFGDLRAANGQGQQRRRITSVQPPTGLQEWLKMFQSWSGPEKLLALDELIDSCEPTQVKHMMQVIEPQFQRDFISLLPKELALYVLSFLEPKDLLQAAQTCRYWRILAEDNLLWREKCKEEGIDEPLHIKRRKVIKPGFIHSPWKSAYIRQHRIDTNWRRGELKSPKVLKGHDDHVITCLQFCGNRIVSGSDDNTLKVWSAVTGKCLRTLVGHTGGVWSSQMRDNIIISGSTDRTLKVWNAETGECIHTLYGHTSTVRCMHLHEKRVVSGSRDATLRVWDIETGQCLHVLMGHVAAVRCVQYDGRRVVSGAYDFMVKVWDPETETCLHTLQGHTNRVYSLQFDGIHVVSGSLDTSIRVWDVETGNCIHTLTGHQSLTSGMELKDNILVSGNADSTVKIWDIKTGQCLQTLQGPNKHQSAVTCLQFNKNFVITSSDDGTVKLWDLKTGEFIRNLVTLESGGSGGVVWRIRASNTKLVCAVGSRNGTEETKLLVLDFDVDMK

For T427A, the “effect of a mutation on the interaction” value was “disrupting interaction” in test [1] and “decreasing interaction” in test [2].
As for S359A, the “effect of a mutation on the interaction” value was “disrupting interaction” in test [1] and “decreasing interaction” in test [3].
As to T434A, the “effect of a mutation on the interaction” value in test [4] is “disrupting interaction”.
With S413A, the “effect of a mutation on the interaction” value in test [1] is on record as “disrupting interaction”; in test [5], “decreasing interaction”.
